Data taken from patent US11634497B2, “Anti-CCR7 antibody drug conjugates” (NOVARTIS AG, priority 2017, dated 2023).

Columns and labels:
Format in all cases: cell-based
[1] = molecular target: T1, hCCR7 (CHO-flpin-hCCR7 cells) (Homo sapiens, UniProt P32248); assay: β-Arrestin assay (PathHunter), antagonistic mode; conditions: parental anti-CCR7 antibodies; hCCL19 as ligand; FIGS. 4B, 4C
T1 construct: host or cells: CHO (CHO-flpin), doxycycline-induced
T1 sequence (P32248 25-378): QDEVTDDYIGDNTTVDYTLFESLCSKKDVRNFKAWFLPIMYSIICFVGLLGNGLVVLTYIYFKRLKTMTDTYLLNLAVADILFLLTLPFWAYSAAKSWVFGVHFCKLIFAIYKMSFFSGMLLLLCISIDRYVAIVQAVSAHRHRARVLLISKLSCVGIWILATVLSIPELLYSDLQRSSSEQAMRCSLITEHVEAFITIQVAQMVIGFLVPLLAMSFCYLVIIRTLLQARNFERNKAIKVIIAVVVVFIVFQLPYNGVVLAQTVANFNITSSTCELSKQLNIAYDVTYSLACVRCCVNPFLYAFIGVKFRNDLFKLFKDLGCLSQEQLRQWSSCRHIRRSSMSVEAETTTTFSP
Protocol: To determine functionality of the anti-CCR7 antibodies, the β-Arrestin assay was performed using the PathHunter Flash Detection Kit from DiscoverX (#93-0247) either in agonistic mode for assessment of agonistic function or antagonistic mode for assessment of antagonistic function.
In the antagonistic mode, CHO-flpin-hCCR7 cells were seeded as described above. The next day, a 6× working solution (0.5 μM×6=3.0 μM) in 1× assay buffer was made for each test antibody or positive control MAB197 (R&D reference antibody; ligand antagonist) or negative control hIgG. 5 μl of the 6× working solution of antibodies or controls were added to each well, briefly spun down, and incubated at 37° C./5% CO2 for 30 min. During incubation, serial dilutions of a 6× working solution in 1× assay buffer were made for hCCL19. Following incubation, 5 μl of the 6× working solution of hCCL19 were added to each well, briefly spun down, and incubated at 37° C./5% CO2 for 90 min. Following incubation, 25 μl of detection reagent were added to each well, incubated at room temperature in the dark while shaking for 20 min. Then, the luminescence signal for enzyme activity was measured on the Envision machine and analyzed in Excel.

[2] = system: CCR7 and CD20 expressing JVM2 cells; assay: surrogate ADCC reporter assay; conditions: JVM2 target cells and Jurkat-V158 effector cells
Protocol: Capacity of candidate antibodies to mediate ADCC was assessed using a surrogate ADCC reporter assay. CCR7 and CD20 expressing JVM2 cells were used as target cells. JVM2 cells were washed and re-suspended at 8×10^4 cells/ml cells/ml. Effector cells in this assay were a Jurkat cell line stably expressing CD16V158 and an NFAT dependent luciferase reporter (Jurkat-V158); expression of luciferase is a surrogate for canonical ADCC signaling through CD16. Briefly, Jurkat-V158 cells grown in suspension were spun down to remove spent media, the pellet was resuspended in assay media and adjusted to 1.6x10^6 cells/ml cells/mL. Mix equal volumes of effector and target cells to make a master mix of cells yielding a target to effector cell ratio of 1:5 or 1:20. A titration of antibody was diluted in assay media with a final top concentration of 50 ug/mL in the assay well. 12.5 uL of Ab solution was added to a 384 well round bottom plate and then 12.5 ul of the master cell mix was added. Antibody and cells were mixed well by pipetting and incubated for 4 hours at 37° C. in 5% CO2. Following incubation, 15 uL of Bright Glo substrate (Promega #G7572) was added to each well and shaken for 5 min at RT at 1050 rpm. Luminescent signal was read on the Envision plate reader (Perkin Elmer).

SR786 = assay: ADC cell viability assay (CellTiter-Glo, four days); conditions: SR786 (Anaplastic large T cell lymphoma); CCR7 receptor levels ~28,000
Protocol: (§1) Cytotoxic effects after binding of directly conjugated antibodies (ADCs) with various payloads and their internalization into CCR7(+) cells were studied by assessing cell viability after four days of treatment. Three fold dilutions of the ADCs were added to 384-well bottom white plates in triplicates ([…]). […] Cells were harvested (adherent cells were detached with Accutase) and resuspended to approximately 2×10^4cells/ml. Cells were added to 384-well plates on top of the antibody (20 μl/well). The plates were incubated for four days at 37° C. and 5% CO2. Subsequently, 20 μl/well of CellTiter-Glo solution (CellTiter-Glo® Luminescent Cell Viability Assay; Promega, #G7571) was prepared and added to the cells. Cell viability was determined by the luminescence signal, which was measured after 10 min of incubation at 22° C. and 400 rpm with the Envision reader. IC50 values were calculated using the Graphpad Prism software.
(§2) To assess the ADCs for target-specificity and receptor-level dependency, ADC activity was tested across cell lines with different CCR7 receptor levels. […] Cell lines were chosen based on similar sensitivity to payload.

DND-41 = assay: as above; conditions: DND-41 (T cell leukemia); CCR7 receptor levels 1,700
Protocol: as §1, §2

CML-T1 = assay: as above; conditions: CML-T1 (T cell leukemia); CCR7 receptor levels ~29,000
Protocol: as §1, §2

DEL = assay: as above; conditions: DEL (ALCL); CCR7 receptor levels ~100,000; Table 19
Protocol: as §1

KE97 = assay: as above; conditions: KE97 (Multiple Myeloma); CCR7 receptor levels ~100,000; Table 19
Protocol: as §1

B1: 674J13 Parental: parental anti-CCR7 antibody derived from the hybridoma (antibody, V domains shown)
VH: DVQLQESGPDLVKPSQSLSLTCTVTGYSITSGYSWHWIRQFPGNKLEWMAHIHSSGSTNYNPSLKSRISIIRDTSKNLFFLQLNSVTTEDTATYYCARGGVQAFAYWGQGTLVTVSA
VL: QIVLTQSPAIMSASPGEKVTMTCSASSSVIYMHWYQQKSGTSPKRWIYDTSKLASGVPARFSGSGSGTSYSLTISSMEAEDAATYYCQQWSSNPLTFGAGTTLELK
functionality in β-Arrestin assay, antagonistic format [1]: neutral, non-ligand blocking antibody

B2: 121G12 humanized CysMab: humanized anti-CCR7 IgG1 antibody with cysteine mutations, wild type Fc (antibody, V domains shown)
VH: EVQLVESGGGLVKPGGSLRLSCAASGFTFSTYAMSWVRQAPGKGLEWVATISDAGSYSYYPDNVKGRFTISRDNAKNSLYLQMNSLRAEDTAVYYCARRGSRYEEYYVMDYWGQGTTVTVSS
VL: EIVLTQSPATLSVSPGERVTLSCRASQSISNNLHWYQQKPGQAPRLLIKYASQSISGIPARFSGSGSGTDFTLTISSVEPEDFGVYFCQQSSSWLTFGQGTKLEIK
ADCC activity; IC50 (nM) [2]: Yes, but insufficient curve fitting

B3: 674J13.CysMab.DAPA.AURIX2 (conjugate)
heavy: DVQLQESGPGLVKPSQTLSLTCTVSGYSITSGYSWHWIRQHPGKGLEWMAHIHSSGSTNYNPSLKSRITISRDTSKNQFSLKLSSVTAADTAVYYCARGGVQAFAYWGQGTLVTVSSASTKGPSVFPLAPSSKSTSGGTAALGCLVKDYFPCPVTVSWNSGALTSGVHTFPAVLQSSGLYSLSSVVTVPSSSLGTQTYICNVNHKPSNTKVDKRVEPKSCDKTHTCPPCPAPELLGGPSVFLFPPKPKDTLMISRTPEVTCVVVAVSHEDPEVKFNWYVDGVEVHNAKTKPREEQYNSTYRVVSVLTVLHQDWLNGKEYKCKVSNKALAAPIEKTISKAKGQPREPQVYTLPPSREEMTKNQVSLTCLVKGFYPCDIAVEWESNGQPENNYKTTPPVLDSDGSFFLYSKLTVDKSRWQQGNVFSCSVMHEALHNHYTQKSLSLSPGK
light: EIVLTQSPATLSASPGERVTMSCSASSSVIYMHWYQQKPGQAPRRWIYDTSKLASGVPARFSGSGSGTDYTLTISSMEPEDAAVYYCQQWSSNPLTFGQGTKLEIKRTVAAPSVFIFPPSDEQLKSGTASVVCLLNNFYPREAKVQWKVDNALQSGNSQESVTEQDSKDSTYSLSSTLTLSKADYEKHKVYACEVTHQGLSSPVTKSFNRGEC
AMAX (SR786): (90% AMAX)
AMAX (DND-41): <20% AMAX
AMAX (CML-T1): (60% AMAX)
AMAX (DEL): (>95% AMAX)
AMAX (KE97): (>95% AMAX)
